In patent US20150218281A1 (Ablynx, published 2015):
Like-named read-outs stand apart in the source and are kept apart here. One block for each binder: values may come before it.

Columns and labels:
[1] = molecular target: T1, biotinylated hOX40L (R&D Systems, biotinylated in house) (human, UniProt P23510 51-183, biotinylated with Sulfo-NHS-LC-Biotin, sites not stated); test: hOX40L/hOX40 AlphaScreen, native sample
T1 construct: same bought protein as m10, biotinylated; also called biotinylated OX40L
T1 sequence: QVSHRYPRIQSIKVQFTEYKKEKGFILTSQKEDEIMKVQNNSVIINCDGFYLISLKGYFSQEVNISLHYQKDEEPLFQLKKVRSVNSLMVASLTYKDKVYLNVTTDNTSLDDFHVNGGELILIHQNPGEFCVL
Method: (§1) Next, streptavidin donor beads were added and incubated for an additional 1 hour. Fluorescence was measured by reading plates on the EnVision Multilabel Plate Reader using an excitation wavelength of 680 nm and an emission wavelength of 520 nm.
(§2) In the TSA assay, Nanobodies were diluted to a concentration of 0.2 mg/ml and melting temperature (Tm) was determined at different pH by stepwise increase in temperature in presence of Sypro Orange, a dye that binds to […] residues that become exposed upon unfolding of the protein, using the Lightcycler (Roche) for detection. […] In SEC analysis, the Nanobodies were analyzed on a Phenomenex matrix to allow detection of multimers, aggregates or ‘stickyness’.

[2] = molecular target: T2, recombinant human OX40L (extracellular domain, R&D Systems) (human, UniProt P23510 51-183); test: cell-based or functional assay
T2 sequence: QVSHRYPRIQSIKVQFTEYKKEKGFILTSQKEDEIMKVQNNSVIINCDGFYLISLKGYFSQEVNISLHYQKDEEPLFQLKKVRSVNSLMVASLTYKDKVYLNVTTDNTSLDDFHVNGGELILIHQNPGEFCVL

[3] = molecular target: T1, biotinylated hOX40L (R&D Systems, …); test: hOX40L/hOX40 AlphaScreen, sample heated 1 min at Tm+10 C
Method: as §1, §2

[4] = molecular target: T3, full length human OX40L expressed on CHO cells (human, UniProt P23510 1-183); test: cell-based or functional assay
T3 sequence: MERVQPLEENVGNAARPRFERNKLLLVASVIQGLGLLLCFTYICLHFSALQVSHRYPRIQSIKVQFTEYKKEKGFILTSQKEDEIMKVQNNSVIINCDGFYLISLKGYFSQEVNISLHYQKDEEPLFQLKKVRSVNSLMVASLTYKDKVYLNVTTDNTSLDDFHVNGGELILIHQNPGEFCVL

[5] = molecular target: T3, full length human OX40L expressed on …; test: cell-based or functional assay; remark: listed apart in the source
[6] = molecular target: T3, full length human OX40L expressed on …; test: cell-based or functional assay; remark: listed apart in the source
[7] = molecular target: T3, full length human OX40L expressed on …; test: competition FACS, 3.1 nM hOX40/Fc on hOX40L expressing cells
[8] = molecular target: T1, biotinylated hOX40L (R&D Systems, …); test: AlphaScreen, 120 pM biotinylated hOX40L + 0.2 nM hOX40/Fc
Method: as §1

[9] = molecular target: T1, biotinylated hOX40L (R&D Systems, …); test: hOX40L/hOX40 AlphaScreen, assay 2, native
Method: as §1, §2

[10] = molecular target: T2, recombinant human OX40L (extracellular …); test: cell-based or functional assay; remark: listed apart in the source
[11] = molecular target: T1, biotinylated hOX40L (R&D Systems, …); test: hOX40L/hOX40 AlphaScreen, assay 1, native
Method: Next, streptavidin donor beads were added and incubated for an additional 1 hour. Fluorescence was measured by reading plates on the EnVision Multilabel Plate Reader using an excitation wavelength of 680 nm and an emission wavelength of 520 nm. […]

[12] = molecular target: T1, biotinylated hOX40L (R&D Systems, …); test: hOX40L/hOX40 AlphaScreen, assay 2, heated at Tm+10 C
Method: as §1, §2

IC50 [1]: 0.07 nM
IC50, T cell assay with rec. hOX40L [2]: 1.54 nM
IC50 [3]: 0.07 nM
B1: OX40L024 (VHH, not shown: small tags and cut ends)
VHH: EVQLVESGGGLVQPGGSLRLSCAASGRTFSSIYAKGWFRQAPGKEREFVAAISRSGRSTSYADSVKGRFTISRDNAKNTVYLQMNSLRPEDTAVYYCAAVGGATTVTASEWDYWGLGTLVTVSS

IC50 [1]: 0.07 nM
IC50, T cell assay with rec. hOX40L [2]: 1.43 nM
IC50 [3]: 0.07 nM
B2: OX40L027 (VHH, not shown: small tags and cut ends)
VHH: EVQLVESGGGLVQPGGSLRLSCAASGRTFSSIYAKGWFRQAPGKEREFVAAISRSGRSTSYADSVKGRFTISRDNSKNTVYLQMNSLRPEDTAVYYCAAVGGATTVTASEWDYWGQGTLVTVSS

IC50 [1]: 0.06 nM
IC50, T cell assay with rec. hOX40L [2]: 1.15 nM
IC50 [3]: 0.05 nM
B3: OX40L025 (VHH, not shown: small tags and cut ends)
VHH: EVQLVESGGGLVQPGGSLRLSCAASGRTFSSIYAKGWFRQAPGKEREFVAAISRSGRSTSYADSVKGRFTISRDNSKNTVYLQMNSLRPEDTAVYYCAAVGGATTVTASEWDYWGLGTLVTVSS

IC50 [1]: 0.05 nM
IC50, T cell assay with rec. hOX40L [2]: 2.46 nM
IC50 [3]: 0.06 nM
B4: OX40L026 (VHH, not shown: small tags and cut ends)
VHH: EVQLVESGGGLVQPGGSLRLSCAASGRTFSSIYAKGWFRQAPGKEREFVAAISRSGRSTSYADSVKGRFTISRDNAKNTVYLQMNSLRPEDTAVYYCAAVGGATTVTASEWDYWGQGTLVTVSS

IC50, T-cell activation assay, donor 1 [4]: 69.1 nM
IC50, T-cell activation assay, donor 2 [4]: 57.2 nM
IC50, T-cell activation assay, donor 3 [4]: 35.1 nM
IC50, T-cell activation assay, donor 4 [4]: 5.6 nM
IC50, T-cell activation assay, donor 10, +10% FBS [5]: 203 nM
IC50, T-cell activation assay, donor 10, +10% HS [5]: 161 nM
IC50, T-cell activation assay, donor 11, +10% FBS [5]: 61.2 nM
IC50, T-cell activation assay, donor 11, +10% HS [5]: 30.2 nM
IC50, T-cell activation assay, donor 12, +10% FBS [5]: 22.1 nM
IC50, T-cell activation assay, donor 12, +10% HS [5]: 42.9 nM
IC50, T-cell activation assay, donor 13, +10% FBS [5]: 84.4 nM
IC50, T-cell activation assay, donor 13, +10% HS [5]: 120 nM
B5: benchmark OX40L blocking mAb (benchmark IgG) (antibody, V domains shown)
VH: EVQLLESGGGLVQPGGSLRLSCAASGFTFNSYAMSWVRQAPGKGLEWVSIISGSGGFTYYADSVKGRFTISRDNSRTTLYLQMNSLRAEDTAVYYCAKDRLVAPGTFDYWGQGALVTVSS
VL: DIQMTQSPSSLSASVGDRVTITCRASQGISSWLAWYQQKPEKAPKSLIYAASSLQSGVPSRFSGSGSGTDFTLTISSLQPEDFATYYCQQYNSYPYTFGQGTKLEIKR

IC50, T-cell activation assay, donor 1 [4]: 80.2 nM
IC50, T-cell activation assay, donor 2 [4]: 131 nM
IC50, T-cell activation assay, donor 3 [4]: 57.6 nM
IC50, T-cell activation assay, donor 4 [4]: 85.2 nM
IC50, IL4 production, T-cell activation assay, donor 1 [6]: 80 nM
IC50, IL4 production, T-cell activation assay, donor 2 [6]: 131 nM
IC50, IL4 production, T-cell activation assay, donor 3 [6]: 58 nM
IC50, IL4 production, T-cell activation assay, donor 4 [6]: 85 nM
IC50 [7]: 217 nM
IC50 [8]: 1.97 nM
B6: anti-OX40L benchmark Fab (Fab, V domains shown)
VH: EVQLLESGGGLVQPGGSLRLSCAASGFTFNSYAMSWVRQAPGKGLEWVSIISGSGGFTYYADSVKGRFTISRDNSRTTLYLQMNSLRAEDTAVYYCAKDRLVAPGTFDYWGQGALVTVSS
VL: DIQMTQSPSSLSASVGDRVTITCRASQGISSWLAWYQQKPEKAPKSLIYAASSLQSGVPSRFSGSGSGTDFTLTISSLQPEDFATYYCQQYNSYPYTFGQGTKLEIKR
notes: papain digest of benchmark IgG; also called LC001 Fab

IC50 [1]: 0.31 nM
IC50 [3]: 1.9 nM
B7: OX40L075 (VHH, not shown: small tags and cut ends)
VHH: EVQLVESGGGLVQPGGSLRLSCAASGRSFSTYIMGWFRQAPGKEREFVATISRSGITTRSADSVKGRFTISRDNSKNTVYLQMNSLRPEDTAVYYCAAGPYVEQTLGLYQTLGPWDYWGQGTLVTVSS

IC50 [9]: 0.22 nM
IC50, T cell assay with rec. hOX40L [10]: 64 nM
IC50 [11]: 0.127 nM
IC50 [12]: 0.262 nM
B8: OX40L041 (VHH, not shown: small tags and cut ends)
VHH: DVQLVESGGGLVQPGGSLRLSCAASRSIGRLDRMGWYRHATGEPRELVATITGGSSINYGDFVKGRFTISRDNSKNTVYLQMNSLRPEDTAVYYCNFNKYVTSRDTWGQGTLVTVSS

IC50, T cell assay with rec. hOX40L [10]: 12 nM
IC50 [11]: 0.035 nM
B9: OX40L049 (VHH, not shown: small tags and cut ends)
VHH: DVQLVESGGGLVQPGGSLRLSCAASRSIGRLDRMGWYRHRTGEPRELVATITGGSSINYGDSVKGRFTISRDNSKNTVYLQMNSLRPEDTAVYYCNFNKYVTSRDTWGQGTLVTVSS

IC50 [9]: 0.134 nM
IC50, T cell assay with rec. hOX40L [10]: 29 nM
IC50 [11]: 0.101 nM
IC50 [12]: 0.156 nM
B10: OX40L043 (VHH, not shown: small tags and cut ends)
VHH: DVQLVESGGGLVQPGGSLRLSCAASRSIGRLDRMGWYRHRTGKPRELVATITGGSSINYGDFVKGRFTISRDNSKNTVYLQMNSLRPEDTAVYYCNFNKYVTSRDTWGQGTLVTVSS

IC50, T cell assay with rec. hOX40L [10]: 133 nM
IC50 [11]: 0.152 nM
B11: OX40L045 (VHH, not shown: small tags and cut ends)
VHH: DVQLVESGGGLVQPGGSLRLSCAASRSIGRLDRMGWYRHATGKPRELVATITGGSSINYGDFVKGRFTISRDNSKNTVYLQMNSLRPEDTAVYYCNFNKYVTSRDTWGQGTLVTVSS

IC50, T cell assay with rec. hOX40L [10]: 76 nM
IC50 [11]: 0.065 nM
B12: OX40L044 (VHH, not shown: small tags and cut ends)
VHH: DVQLVESGGGLVQPGGSLRLSCAASRSIGRLDRMGWYRHAPGEPRELVATITGGSSINYGDFVKGRFTISRDNSKNTVYLQMNSLRPEDTAVYYCNFNKYVTSRDTWGQGTLVTVSS

IC50, T cell assay with rec. hOX40L [10]: 18 nM
IC50 [11]: 0.057 nM
B13: OX40L042 (VHH, not shown: small tags and cut ends)
VHH: DVQLVESGGGLVQPGGSLRLSCAASRSIGRLDRMGWYRHRPGEPRELVATITGGSSINYGDFVKGRFTISRDNSKNTVYLQMNSLRPEDTAVYYCNFNKYVTSRDTWGQGTLVTVSS

IC50 [9]: 0.314 nM
IC50, T cell assay with rec. hOX40L [10]: 32 nM
IC50 [11]: 0.093 nM
IC50 [12]: 0.314 nM
B14: OX40L048 (VHH, not shown: small tags and cut ends)
VHH: DVQLVESGGGLVQPGGSLRLSCAASRSIGRLDRMGWYRHRTGEPRELVATITGGSSINYADFVKGRFTISRDNSKNTVYLQMNSLRPEDTAVYYCNFNKYVTSRDTWGQGTLVTVSS

IC50 [9]: 0.256 nM
IC50, T cell assay with rec. hOX40L [10]: 57 nM
IC50 [11]: 0.084 nM
IC50 [12]: 0.221 nM
B15: OX40L046 (VHH, not shown: small tags and cut ends)
VHH: DVQLVESGGGLVQPGGSLRLSCAASRSIGRLDRMGWYRHRPGKPRELVATITGGSSINYGDFVKGRFTISRDNSKNTVYLQMNSLRPEDTAVYYCNFNKYVTSRDTWGQGTLVTVSS

IC50 [9]: 0.145 nM
IC50, T cell assay with rec. hOX40L [10]: 43 nM
IC50 [11]: 0.046 nM
IC50 [12]: 0.164 nM
B16: OX40L050 (VHH, not shown: small tags and cut ends)
VHH: DVQLVESGGGLVQPGGSLRLSCAASRSIGRLDRMGWYRHRTGEPRELVATITGGSSINYADSVKGRFTISRDNSKNTVYLQMNSLRPEDTAVYYCNFNKYVTSRDTWGQGTLVTVSS

IC50 [9]: 0.735 nM
IC50, T cell assay with rec. hOX40L [10]: 126 nM
IC50 [11]: 0.269 nM
IC50 [12]: 0.557 nM
B17: OX40L047 (VHH, not shown: small tags and cut ends)
VHH: DVQLVESGGGLVQPGGSLRLSCAASRSIGRLDRMGWYRHAPGKPRELVATITGGSSINYGDFVKGRFTISRDNSKNTVYLQMNSLRPEDTAVYYCNFNKYVTSRDTWGQGTLVTVSS
